Results taken from patent US20250282857A1, “TGF-BETA INHIBITORS AND USE THEREOF” (SCHOLAR ROCK, INC., priority 2021, published 2025).

Legend:
[1] = target: Cell-associated proTGFβ1 complexes (hGARP-proTGFβ1 and hLRRC33-proTGFβ1); experiment: BLI (Octet)
[2] = target: Matrix-associated proTGFβ1 complexes (hLTBP1-proTGFβ1 and hLTBP3-proTGFβ1); experiment: BLI (Octet)
[3] = target: Cell-associated proTGFβ1 complexes (hGARP-proTGFβ1 and hLRRC33-proTGFβ1); experiment: MSD-SET, hIgG4
[4] = target: Matrix-associated proTGFβ1 complexes (hLTBP1-proTGFβ1 and hLTBP3-proTGFβ1); experiment: MSD-SET, hIgG4
[5] = system: matrix-associated vs cell-associated proTGFβ1 complexes; experiment: MSD-SET: fold bias, cell average over matrix average; type: binding, human; settings: ratio of average KD
Source text: Column (A) of the table lists monoclonal antibodies with discrete amino acid sequences. […] Columns (B), (D), (E) and (F) provide affinities of each of the listed antibodies, measured in KD. […] Average KD values of (B) and (C) are shown in the corresponding column (D), which collectively represents affinities of the antibodies to ECM- or matrix-associated proTGFβ1 complexes. Similarly, Average KD values of (E) and (F) are shown in the corresponding column (G), which collectively represents affinities of the antibodies to cell-surface or cell-associated proTGFβ1 complexes. Finally, relative ratios between the average KD values from columns (D) and (G) are expressed as “fold bias” in column (H). Thus, the greater the number of column (H) is, the greater bias exists for the particular antibody, when comparing binding preferences of the antibody for matrix-associated complexes and cell-surface complexes. This is one way of quantitatively representing and comparing inherent bias of antibodies to their target complexes. Such analyses may be useful in guiding the selection process for a candidate antibody for particular therapeutic use.
Solution equilibrium titration (“SET”) is an assay whereby binding between two molecules (such as an antigen and an antibody that binds the antigen) can be measured at equilibrium in a solution. […]

B1: Ab21 (antibody, V domains shown)
VH: EVQLVESGGGLVQPGGSLRLSCAASGFTFSSFSMDWVRQAPGKGLEWVSYISPDASTIYYADSVKGRFTISRDNAKNSLYLQMNSLRAEDTAVYYCARGVLDYGDMLDPWGQGTLVTVSS
VL: DIQMTQSPSSLSASVGDRVTITCQASQDITNYLNWYQQKPGKAPKLLIYDASNLETGVPSRFSGSGSGTDFTFTISSLQPEDIATYYCQQADNHPPWTFGGGTKVEIK
Cell AVRG (average KD, hGARP and hLRRC33 complexes) [1]: 0.644 nM
ECM AVRG (average KD, hLTBP1 and hLTBP3 complexes) [2]: 0.246 nM

B2: Ab33 (antibody, IgG4, V domains shown)
VH: EVQLVESGGGLVQPGGSLRLSCAASGFTFSSFSMNWVRQAPGKGLEWVSYISPSADTIYYADSVKGRFTISRDNAKNTLYLQMNSLRAEDTAVYYCAHGVLDYGDMLDPWGQGTLVTVSS
VL: DIQMTQSPSSLSASVGDRVTITCQASQDITNYLNWYQQKPGKAPKLLIYDASNLETGVPSRFSGSGSGTDFTFTISSLQPEDIATYYCQQADNHPPWTFGGGTKVEIK
Cell AVRG (average KD, hGARP and hLRRC33 complexes) [3]: 0.027 nM
ECM AVRG (average KD, hLTBP1 and hLTBP3 complexes) [4]: 0.009 nM
Cell AVRG (average KD, hGARP and hLRRC33 complexes) [1]: 0.302 nM
ECM AVRG (average KD, hLTBP1 and hLTBP3 complexes) [2]: 0.145 nM

B3: Ab24 (antibody, IgG4, V domains shown)
VH: EVQLVESGGGLVQPGRSLRLSCAASGFTFSSFAMYWVRQAPGKGLEWVSYISPDASTIYYADSVKGRFTISRDNAKNSLYLQMNSLRAEDTAVYYCARGVLDYGDMLDPWGQGTLVTVSS
VL: DIQMTQSPSSLSASVGDRVTITCQASQDITNYLNWYQQKPGKAPKLLIYDASNLETGVPSRFSGSGSGTDFTFTISSLQPEDIATYYCQQADNHPPWTFGGGTKVEIK
Cell AVRG (average KD, hGARP and hLRRC33 complexes) [3]: 0.1 nM
ECM AVRG (average KD, hLTBP1 and hLTBP3 complexes) [4]: 0.023 nM
Cell AVRG (average KD, hGARP and hLRRC33 complexes) [1]: 0.537 nM
ECM AVRG (average KD, hLTBP1 and hLTBP3 complexes) [2]: 0.222 nM

B4: Ab23 (antibody, V domains shown)
VH: EVQLVESGGGLVQPGGSLRLSCAASGFTFSSFSMNWVRQAPGKGLEWVSYISPSADTIYYADSVKGRFTISRDNAKNTLYLQMNSLRAEDTAVYYCARGVLDYGDMLDPWGQGTLVTVSS
VL: DIQMTQSPSSLSASVGDRVTITCQASQDITNYLNWYQQKPGKAPKLLIYDASNLETGVPSRFSGSGSGTDFTFTISSLQPEDIATYYCQQADNHPPWTFGGGTKVEIK
Cell AVRG (average KD, hGARP and hLRRC33 complexes) [1]: 0.897 nM
ECM AVRG (average KD, hLTBP1 and hLTBP3 complexes) [2]: 0.443 nM

B5: Ab25 (antibody, V domains shown)
VH: EVQLVESGGGLVQPGGSLRLSCAASGFTFGSFSMDWVRQAPGKGLEWVSYISPDASTIYYADSVKGRFTISRDNAKNSLYLQMNSLRAEDTAVYYCARGVLDYGDMLDPWGQGTLVTVSS
VL: DIQMTQSPSSLSASVGDRVTITCQASQDITNYLNWYQQKPGKAPKLLIYDASNLETGVPSRFSGSGSGTDFTFTISSLQPEDIATYYCQQADNHPPWTFGGGTKVEIK
Cell AVRG (average KD, hGARP and hLRRC33 complexes) [1]: 0.449 nM
ECM AVRG (average KD, hLTBP1 and hLTBP3 complexes) [2]: 0.184 nM

B6: Ab22 (antibody, IgG4, V domains shown)
VH: EVQLVESGGGLVQPGGSLRLSCAASGFTFGSFSMNWVRQAPGKGLEWVSYIHSDASTIYYADSVKGRFTISRDNAKNSLYLQMNSLRAEDTAVYYCARGVLDYGDMLDPWGQGTLVTVSS
VL: DIQMTQSPSSLSASVGDRVTITCQASQDITNYLNWYQQKPGKAPKLLIYDASNLETGVPSRFSGSGSGTDFTFTISSLQPEDIATYYCQQADNHPPWTFGGGTKVEIK
Cell AVRG (average KD, hGARP and hLRRC33 complexes) [3]: 0.114 nM
ECM AVRG (average KD, hLTBP1 and hLTBP3 complexes) [4]: 0.042 nM
Cell AVRG (average KD, hGARP and hLRRC33 complexes) [1]: 0.695 nM
ECM AVRG (average KD, hLTBP1 and hLTBP3 complexes) [2]: 0.324 nM

B7: Ab30 (antibody, IgG4, V domains shown)
VH: EVQLVESGGGLVQPGGSLRLSCAASGFTFSSFSMDWVRQAPGKGLEWVSYISPDASTIYYADSVKGRFTISRDNAKNSLYLQMNSLRAEDTAVYYCARGTLDYGDMLDPWGQGTLVTVSS
VL: DIQMTQSPSSLSASVGDRVTITCQASQDITNYLNWYQQKPGKAPKLLIYDASNLETGVPSRFSGSGSGTDFTFTISSLQPEDIATYYCQQADNHPPWTFGGGTKVEIK
Cell AVRG (average KD, hGARP and hLRRC33 complexes) [3]: 0.081 nM
ECM AVRG (average KD, hLTBP1 and hLTBP3 complexes) [4]: 0.029 nM
Cell AVRG (average KD, hGARP and hLRRC33 complexes) [1]: 0.684 nM
ECM AVRG (average KD, hLTBP1 and hLTBP3 complexes) [2]: 0.296 nM

B8: Ab28 (antibody, V domains shown)
VH: EVQLVESGGGLVQPGGSLRLSCAASGFTFSSFSMDWVRQAPGKGLEWVSYISPDASTIYYADSVKGRFTISRDNAKNSLYLQMNSLRAEDTAVYYCVRGVLDYGDMLDPWGQGTLVTVSS
VL: DIQMTQSPSSLSASVGDRVTITCQASQDITNYLNWYQQKPGKAPKLLIYDASNLETGVPSRFSGSGSGTDFTFTISSLQPEDIATYYCQQADNHPPWTFGGGTKVEIK
Cell AVRG (average KD, hGARP and hLRRC33 complexes) [1]: 0.603 nM
ECM AVRG (average KD, hLTBP1 and hLTBP3 complexes) [2]: 0.328 nM

B9: Ab32 (antibody, IgG4, V domains shown)
VH: EVQLVESGGGLVQPGGSLRLSCAASGFTFSSFSMNWVRQAPGKGLEWVSYISPSADTIYYADSVKGRFTISRDNAKNTLYLQMNSLRAEDTAVYYCARGVWDMGDMLDPWGQGTLVTVSS
VL: DIQMTQSPSSLSASVGDRVTITCQASQDITNYLNWYQQKPGKAPKLLIYDASNLETGVPSRFSGSGSGTDFTFTISSLQPEDIATYYCQQADNHPPWTFGGGTKVEIK
Cell AVRG (average KD, hGARP and hLRRC33 complexes) [3]: 0.051 nM
ECM AVRG (average KD, hLTBP1 and hLTBP3 complexes) [4]: 0.032 nM
Cell AVRG (average KD, hGARP and hLRRC33 complexes) [1]: 0.597 nM
ECM AVRG (average KD, hLTBP1 and hLTBP3 complexes) [2]: 0.242 nM

B10: Ab29 (antibody, IgG4, V domains shown)
VH: EVQLVESGGGLVQPGRSLRLSCAASGFTFSSFAMNWVRQAPGKGLEWVSYISPDASTIYYAGSVKGRFTISRDNAKNSLYLQMNSLRAEDTAVYYCVRAVLDYGDMLDPWGQGTLVTVSS
VL: DIQMTQSPSSLSASVGDRVTITCQASQDITNYLNWYQQKPGKAPKLLIYDASNLETGVPSRFSGSGSGTDFTFTISSLQPEDIATYYCQQADNHPPWTFGGGTKVEIK
Cell AVRG (average KD, hGARP and hLRRC33 complexes) [3]: 0.024 nM
ECM AVRG (average KD, hLTBP1 and hLTBP3 complexes) [4]: 0.012 nM
Cell AVRG (average KD, hGARP and hLRRC33 complexes) [1]: 0.304 nM
ECM AVRG (average KD, hLTBP1 and hLTBP3 complexes) [2]: 0.155 nM

B11: Ab27 (antibody, V domains shown)
VH: EVQLVESGGGLVQPGGSLRLSCAASGFTFSFYAMNWVRQAPGKGLEWVSYISPDASTIYYADSVKGRFTISRDNAKNSLYLQMNSLRAEDTAVYYCARGVLDYGDMLDPWGQGTLVTVSS
VL: DIQMTQSPSSLSASVGDRVTITCQASQDITNYLNWYQQKPGKAPKLLIYDASNLETGVPSRFSGSGSGTDFTFTISSLQPEDIATYYCQQADNHPPWTFGGGTKVEIK
Cell AVRG (average KD, hGARP and hLRRC33 complexes) [1]: 0.361 nM
ECM AVRG (average KD, hLTBP1 and hLTBP3 complexes) [2]: 0.208 nM

B12: Ab4 (antibody, IgG4, V domains shown)
VH: EVQLVESGGGLVQPGGSLRLSCAASGFTFSSYSMNWVRQAPGKGLEWVSYISSSSSTIYYADSVKGRFTISRDNAKNSLYLQMNSLRAEDTAVYYCARGVLDYGDMLDPWGQGTLVTVSS
VL: DIQMTQSPSSLSASVGDRVTITCQASQDITNYLNWYQQKPGKAPKLLIYDASNLETGVPSRFSGSGSGTDFTFTISSLQPEDIATYYCQQADNHPPWTFGGGTKVEIK
(H) G/D (fold bias) [5]: 0.42 fold
Cell AVRG (average KD, hGARP and hLRRC33 complexes) [3]: 2.3 nM
ECM AVRG (average KD, hLTBP1 and hLTBP3 complexes) [4]: 5.05 nM

B13: Ab26 (antibody, IgG4, V domains shown)
VH: EVQLVESGGGLVQPGGSLRLSCAASGFTFSSFSMDWVRQAPGKGLEWVSYISPDASTIYYADSVKGRFTISRDNAKNTLYLQMNSLRAEDTAVYYCARGVLDYGDMLDPWGQGTLVTVSS
VL: DIQMTQSPSSLSASVGDRVTITCQASQDITNYLNWYQQKPGKAPKLLIYDASNLETGVPSRFSGSGSGTDFTFTISSLQPEDIATYYCQQADNHPPWTFGGGTKVEIK
Cell AVRG (average KD, hGARP and hLRRC33 complexes) [3]: 0.072 nM
ECM AVRG (average KD, hLTBP1 and hLTBP3 complexes) [4]: 0.026 nM
Cell AVRG (average KD, hGARP and hLRRC33 complexes) [1]: 0.492 nM
ECM AVRG (average KD, hLTBP1 and hLTBP3 complexes) [2]: 0.197 nM

B14: Ab31 (antibody, IgG4, V domains shown)
VH: EVQLVESGGGLVQPGGSLRLSCAASGFTFSSFSMDWVRQAPGKGLEWVSYISPDASTIYYADSVKGRFTISRDNAKNTLYLQMNSLRAEDTAVYYCARAVLDYGDMLDPWGQGTLVTVSS
VL: DIQMTQSPSSLSASVGDRVTITCQASQDITNYLNWYQQKPGKAPKLLIYDASNLETGVPSRFSGSGSGTDFTFTISSLQPEDIATYYCQQADNHPPWTFGGGTKVEIK
Cell AVRG (average KD, hGARP and hLRRC33 complexes) [3]: 0.058 nM
ECM AVRG (average KD, hLTBP1 and hLTBP3 complexes) [4]: 0.017 nM
Cell AVRG (average KD, hGARP and hLRRC33 complexes) [1]: 0.495 nM
ECM AVRG (average KD, hLTBP1 and hLTBP3 complexes) [2]: 0.208 nM
